Experimental data taken from the supplement of paper PMC9233669.
Variants at the floor of the assay were thinned out.

How the values were obtained:
biotinyl-Phe-oxazolone = experiment: self-aminoacylation, catalytic enhancement (BFO) (fold over background); higher = more active; k-Seq, kA / k0A0; sequences stand for … in GGGAAUGGAUCCACAUCUACGAAUUC…UUCACUGCAGACUUGACGAAGCUG
In short: (§1)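 Mutagenized RNA pools with a 21-nt variable region (0.43 μM) reacted with each biotinyl-aminoacyl-oxazolone at 2–1250 μM. Reactions ran in 50 μL HEPES/NaCl/KCl/MgCl2/CaCl2 buffer with 5% acetonitrile, pH 6.9–7.0, for 90 minutes at room temperature. Streptavidin-captured RNA was quantified by triplicate qPCR and Illumina sequencing, and per-sequence fraction reacted was fit to a pseudo-first-order model with 1000 bootstraps. Catalytic enhancement is median kA divided by the uncatalyzed rate, the low-activity peak of a bimodal Gaussian fit.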

biotinyl-Trp-oxazolone = experiment: self-aminoacylation, catalytic enhancement (BWO) (fold over background); higher = more active; k-Seq, kA / k0A0; sequences stand for … in GGGAAUGGAUCCACAUCUACGAAUUC…UUCACUGCAGACUUGACGAAGCUG
In short: as §1

| Sequence | self-aminoacylation (biotinyl-Phe-oxazolone) | self-aminoacylation (biotinyl-Trp-oxazolone) |
| --- | --- | --- |
| AAGCUUGCUAAUAGUCGCUAG [Fam3.1 aminoacylation ribozyme variant] | 2.31 | 2 |
| AAGGAUGCUAAUAGUCGCAAG [Fam3.1 aminoacylation ribozyme variant] | 13.7 | 5.63 |
| AAGGUUGCUAAUAGUCGUAAG [Fam3.1 aminoacylation ribozyme variant] | 13.7 | 4.23 |
| AAGUGUGCUAAAAGUCGCAAG [Fam3.1 aminoacylation ribozyme variant] | 10.1 | 4.61 |
| AAGUGUGCUAACAGUCGCAAG [Fam3.1 aminoacylation ribozyme variant] | 12.8 | 4.85 |
| AAGUGUGCUCAUAGUCGCAAG [Fam3.1 aminoacylation ribozyme variant] | 4.43 | 2.34 |
| AAGUUAGCUAAUAGGCGCAAG [Fam3.1 aminoacylation ribozyme variant] | 2.32 | 2.47 |
| AAGUUGGCUAAUAGUCGAAAG [Fam3.1 aminoacylation ribozyme variant] | 2.91 | 2.27 |
| AAGUUGGCUAAUAGUCGCAAG [Fam3.1 aminoacylation ribozyme variant] | 4.46 | 2.29 |
| AAGUUUGCAAAUAGUCGCGAG [Fam3.1 aminoacylation ribozyme variant] | 2.69 | 3.06 |
| AAGUUUGCGAAUAGUCGCGAG [Fam3.1 aminoacylation ribozyme variant] | 8.44 | 2.14 |
| AAGUUUGCUAAAAGUCGAAAG [Fam3.1 aminoacylation ribozyme variant] | 4.76 | 2.17 |
| AAGUUUGCUAAUAGUCCCAAG [Fam3.1 aminoacylation ribozyme variant] | 5.64 | 2.12 |
| AAGUUUGCUAAUAGUCUCAAG [Fam3.1 aminoacylation ribozyme variant] | 15.4 | 4.26 |
| AAGUUUGCUAAUUGUCGCAAA [Fam3.1 aminoacylation ribozyme variant] | 8.83 | 2.49 |
| AAGUUUGGUCAUAGUCGCAAG [Fam3.1 aminoacylation ribozyme variant] | 2.71 | 2.16 |
| AAUGUUGCUAAUAGUCGCAAG [Fam3.1 aminoacylation ribozyme variant] | 2.37 | 2.02 |
| AAUUUUGCUGAUAGUCGCAAG [Fam3.1 aminoacylation ribozyme variant] | 2.05 | 2.31 |
| AUACUUCAAAAAAUCGGUCUG [Fam1A.1 aminoacylation ribozyme variant] | 4.26 | 3.25 |
| AUACUUCAAACAAUCGGGCUG [Fam1A.1 aminoacylation ribozyme variant] | 3.63 | 3.93 |
| AUACUUCAAACAAUCGGUCGG [Fam1A.1 aminoacylation ribozyme variant] | 5.46 | 4.83 |

| Sequence | self-aminoacylation (biotinyl-Phe-oxazolone) | self-aminoacylation (biotinyl-Trp-oxazolone) |
| --- | --- | --- |
| AUGUUUGCUAAUAGUCGUAAG [Fam3.1 aminoacylation ribozyme variant] | 18.7 | 5.05 |
| AUUCAGCUAGGUCAUCGGGUC [Fam2.2 aminoacylation ribozyme variant] | 13.5 | 3.24 |
| CAACACUUCAAGAAAUCGGUC [Fam1B.1 aminoacylation ribozyme variant] | 7.2 | 5.88 |
| CAACUUCAAACAAUCAGUCUG [Fam1A.1 aminoacylation ribozyme variant] | 29.7 | 11.2 |
| CAACUUCAAACAAUCCGUCUG [Fam1A.1 aminoacylation ribozyme variant] | 2.94 | 2.31 |
| CAACUUCAAAGAAUCGGUCUG [Fam1A.1 aminoacylation ribozyme variant] | 7.1 | 7.86 |
| CCAAACUUCAAGUAAUCGGUC [Fam1B.1 aminoacylation ribozyme variant] | 10.5 | 7.85 |
| CCAACCUUCAAGCAAUCGGUC [Fam1B.1 aminoacylation ribozyme variant] | 25.8 | 15.3 |
| CCACACUUCAAUCAAUCAGUC [Fam1B.1 aminoacylation ribozyme variant] | 22.8 | 7.45 |
| CCACAGUUCAAACAAUCGGUC [Fam1B.1 aminoacylation ribozyme variant] | 18.2 | 12 |
| CCACCCUUCAAGCCAUCGGUC [Fam1B.1 aminoacylation ribozyme variant] | – | 2.57 |
| CCACGCUUCAAGUAAUCGGUC [Fam1B.1 aminoacylation ribozyme variant] | 18.1 | 12.9 |
| CCACUCUUCAAGCAAUCGGUC [Fam1B.1 aminoacylation ribozyme variant] | 32.1 | 15.1 |
| CCACUUCAAACAAUCGGUAUG [Fam1A.1 aminoacylation ribozyme variant] | 21.3 | 12.7 |
| CCAGACUUCAAGAAAUCGGUC [Fam1B.1 aminoacylation ribozyme variant] | 8.29 | 6.84 |
| CCAGACUUCAAUCAAUCGGUC [Fam1B.1 aminoacylation ribozyme variant] | 34.2 | 21.1 |
| CCAGCCUUCAAGCAAUCGGUC [Fam1B.1 aminoacylation ribozyme variant] | 30.7 | 21.3 |
| CGAAUUCAAACAAUCGGUCUG [Fam1A.1 aminoacylation ribozyme variant] | 4.97 | 3.38 |
| CGACACUUCAAGCAAUCGGUU [Fam1B.1 aminoacylation ribozyme variant] | – | 2.37 |
| CGACUUCAAACAAUCGGACUG [Fam1A.1 aminoacylation ribozyme variant] | 6.95 | 3.53 |
| CGACUUCAAACAAUCGGUCCG [Fam1A.1 aminoacylation ribozyme variant] | 4.63 | 4.64 |

| Sequence | self-aminoacylation (biotinyl-Phe-oxazolone) | self-aminoacylation (biotinyl-Trp-oxazolone) |
| --- | --- | --- |
| CGUCACUUCAAGCAAUCGGUC [Fam1B.1 aminoacylation ribozyme variant] | 22 | 11.1 |
| CUACUUCAAAAAAUCGGGCUG [Fam1A.1 aminoacylation ribozyme variant] | 3.05 | 3.06 |
| CUACUUCAAAAAAUCGGUAUG [Fam1A.1 aminoacylation ribozyme variant] | 4.4 | 2.5 |
| CUACUUCAAACAAUCAGUCGG [Fam1A.1 aminoacylation ribozyme variant] | 11.2 | 5.8 |
| CUACUUCAAACAAUCGGUCCC [Fam1A.1 aminoacylation ribozyme variant] | 11.1 | 6.63 |
| CUACUUCAAAUAAUCGGUCUG [Fam1A.1 aminoacylation ribozyme variant] | 18.3 | 10.5 |
| CUACUUCAACAAAUCGGUCUG [Fam1A.1 aminoacylation ribozyme variant] | 7.2 | 5.45 |
| CUACUUCAACCAAUCGGUCGG [Fam1A.1 aminoacylation ribozyme variant] | 14.3 | 8.86 |
| CUACUUCAACUAAUCGGUCUG [Fam1A.1 aminoacylation ribozyme variant] | 12.9 | 8.63 |
| CUCCUUCAAACAAUCGGUCUA [Fam1A.1 aminoacylation ribozyme variant] | 18.5 | 9.25 |
| CUCCUUCAAUCAAUCGGUCUG [Fam1A.1 aminoacylation ribozyme variant] | 24.6 | 18.4 |
| CUGCGUCAAACAAUCGGUCUG [Fam1A.1 aminoacylation ribozyme variant] | 8.22 | 7.19 |
| CUGCUACAAACAAUCGGUCUG [Fam1A.1 aminoacylation ribozyme variant] | 2.73 | 2.27 |
| CUGCUUCAAACAAUCGGUCAG [Fam1A.1 aminoacylation ribozyme variant] | 41.9 | 23 |
| CUGCUUCAAAUAAUCGGUCUG [Fam1A.1 aminoacylation ribozyme variant] | 23.7 | 17.4 |
| CUUCUUCAAACAAUCAGUCUG [Fam1A.1 aminoacylation ribozyme variant] | 12.3 | 5.05 |
| CUUCUUCAAACAAUCGGUUUG [Fam1A.1 aminoacylation ribozyme variant] | 20.7 | 13.8 |
| GAGUUUUCUAAUAGUCGCAAG [Fam3.1 aminoacylation ribozyme variant] | 3.59 | 2.07 |
| GCACACUCCAAGCAAUCGGUC [Fam1B.1 aminoacylation ribozyme variant] | 2.35 | 2.53 |
| GUACUACAAACAAUCGGUCUG [Fam1A.1 aminoacylation ribozyme variant] | – | 2.14 |
